We go through one molecule from article PMC6310021 (2018).

This assay addresses Metallothionein-2 (UniProt P02795). Kind of assay: SPR.

Metallothionein-2, sequence (P02795 whole entry): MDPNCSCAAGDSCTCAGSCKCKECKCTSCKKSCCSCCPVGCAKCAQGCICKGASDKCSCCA

B1: Transgelin-2 (protein)
chain: ANRGPAYGLSREVQQKIEKQYDADLEQILIQWITTQCRKDVGRPQPGRENFQNWLKDGTVLCELINALYPEGQAPVKKIQASTMAFKQMEQISQFLQAAERYGINTTDIFQTVDLWEGKNMACVQRTLMNLGGLAVARDDGLFSGDPNWFPKKSKENPRNFSDNQLQEGKNVIGLQMGTNRGASQAGMTGYGMPRQIL
Regarding B1, the affinity, expressed as Kd, was 110 nM. This lies in the sub-micromolar range.
